Experimental data as given in US20250320312A1 (OXITOPE PHARMA B V, published 2025).

Biological target: PC-BSA
Test: ELISA (DELFIA TRF), PC-BSA coated, titrated IgG1

PC-BSA, sequence (P02769 25-607 limits assumed, form in doubt): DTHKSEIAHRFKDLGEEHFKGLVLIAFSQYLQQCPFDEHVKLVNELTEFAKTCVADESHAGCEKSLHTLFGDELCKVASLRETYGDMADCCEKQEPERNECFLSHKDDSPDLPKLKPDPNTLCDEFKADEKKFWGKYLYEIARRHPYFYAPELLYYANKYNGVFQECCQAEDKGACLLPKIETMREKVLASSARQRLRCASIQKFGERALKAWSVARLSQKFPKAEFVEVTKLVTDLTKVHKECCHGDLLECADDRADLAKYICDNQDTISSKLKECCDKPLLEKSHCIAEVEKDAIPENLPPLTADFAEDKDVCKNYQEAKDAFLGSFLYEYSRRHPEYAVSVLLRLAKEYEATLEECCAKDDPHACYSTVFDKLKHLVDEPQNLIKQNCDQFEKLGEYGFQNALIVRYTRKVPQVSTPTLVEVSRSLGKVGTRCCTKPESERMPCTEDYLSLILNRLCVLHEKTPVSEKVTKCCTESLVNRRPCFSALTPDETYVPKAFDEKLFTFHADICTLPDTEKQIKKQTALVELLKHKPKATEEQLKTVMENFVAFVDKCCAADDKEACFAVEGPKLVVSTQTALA

Binder	EC50
PcOxP_DB03_B09 (human IgG1) (antibody, V domains shown) VH: EVQLLESGGGLVQPGGSLRLSCAASGFTFSSYYMEWVRQAPGKGLEWVAASRNKANDYTTEYADSVKGRFTISRDNSKNTLYLQMNSLRAEDTAVYYCARDYYGSSYWYFDVWGQGTLVTVSS VL: DIVMTQSPDSLAVSLGERATINCTASESLYSSKHKVHYLAWYQQKPGQPPKLLIYGAANRYIGVPDRFSGSGSGTDFTLTISSLQAEDVAVYYCAQFYSYPLTFGGGTKVEIK	0.426 nM
PcOxP_DB03_G12 (human IgG1) (antibody, V domains shown) VH: EVQLLESGGGLVQPGGSLRLSCAASGFTFSDYYMEWVRQAPGKGLEWVAASRNKYNDYTTEYADSVKGRFTISRDNSKNTLYLQMNSLRAEDTAVYYCARDYYGSSYWYFDVWGQGTLVTVSS VL: DIVMTQSPDSLAVSLGERATINCKSSESVYSSKHKKHYLAWYQQKPGQPPKLLIYGASNRYIGVPDRFSGSGSGTDFTLTISSLQAEDVAVYYCAQFYSYPLTFGGGTKVEIK	0.557 nM
PcOxP_DB03_G07 (human IgG1) (antibody, V domains shown) VH: EVQLLESGGGLVQPGGSLRLSCAASGFTFSDHYMEWVRQAPGKGLEWVAASRNKANDYTTEYADSVKGRFTISRDNSKNTLYLQMNSLRAEDTAVYYCARDYYGQSYWYFDVWGQGTLVTVSS VL: DIQMTQSPSSLSASVGDRVTITCTASESLYSSKHKVHYLAWYQQKPGKAPKLLIYGASNRYIGVPSRFSGSGSGTDFTLTISSLQPEDFATYYCAQFYSYPLTFGGGTKVEIK	0.636 nM
PcOxP_DB03_E01 (human IgG1) (antibody, V domains shown) VH: EVQLLESGGGLVQPGGSLRLSCAASGFTFSDYYMEWVRQAPGKGLEWVAASRNKANDYTVEYADSVKGRFTISRDNSKNTLYLQMNSLRAEDTAVYYCARDYYGSSYWYFDVWGQGTLVTVSS VL: DIQMTQSPSSLSASVGDRVTITCTASESLYSSKHKVHYLAWYQQKPGKAPKLLIYGTSNRYIGVPSRFSGSGSGTDFTLTISSLQPEDFATYYCAQFYEYPLTFGGGTKVEIK	0.857 nM
PcOxP_DB04_A09 (human IgG1) (antibody, V domains shown) VH: EVQLLESGGGLVQPGGSLRLSCAASGFTFSDYYMEWVRQAPGKGLEWVAASRNKWNDYTTEYADSVKGRFTISRDNSKNTLYLQMNSLRAEDTAVYYCARDYYGSSYWYFDVWGQGTLVTVSS VL: DIQMTQSPSSLSASVGDRVTITCTAEESLYSSKHKVHYLAWYQQKPGKAPKLLIYGASNLYSGVPSRFSGSGSGTDFTLTISSLQPEDFATYYCAQFYSYPLTFGGGTKVEIK	0.269 nM
PcOxP_DB02_F10 (human IgG1) (antibody, V domains shown) VH: EVQLLESGGGLVQPGGSLRLSCAASGFTFSDQYMEWVRQAPGKGLEWVAASRNKANDYTTEYADSVKGRFTISRDNSKNTLYLQMNSLRAEDTAVYYCARDYYGSSYWYFDVWGQGTLVTVSS VL: DIVMTQSPDSLAVSLGERATINCTSSQSVLSSKHNKNYLAWYQQKPGQPPKLLIYGASNRYWGVPDRFSGSGSGTDFTLTISSLQAEDVAVYYCAQFYSYPLTFGGGTKVEIK	0.659 nM
PcOxP_DB02_A05 (human IgG1) (antibody, V domains shown) VH: EVQLLESGGGLVQPGGSLRLSCAASGFTGSDFYMEWVRQAPGKGLEWVAASRNKWNDYTTEYADSVKGRFTISRDNSKNTLYLQMNSLRAEDTAVYYCARDYYGSSYWYFDVWGQGTLVTVSS VL: DIVMTQSPDSLAVSLGERATINCTASESLYSSKHKVHYLAWYQQKPGQPPKLLIYGAGNRYIGVPDRFSGSGSGTDFTLTISSLQAEDVAVYYCAQFYSYPLTFGGGTKVEIK	0.264 nM
PcOxP_DB03_D08 (human IgG1) (antibody, V domains shown) VH: EVQLLESGGGLVQPGGSLRLSCAASGFWFSDFYMEWVRQAPGKGLEWVAASRNKANDYTTEYADSVKGRFTISRDNSKNTLYLQMNSLRAEDTAVYYCARDYYGSAYWYFDVWGQGTLVTVSS VL: DIQMTQSPSSLSASVGDRVTITCTASESLYSSKHKVHYLAWYQQKPGKAPKLLIYGASNRYIGVPSRFSGSGSGTDFTLTISSLQPEDFATYYCAQFYSYPLTFGGGTKVEIK	0.401 nM
PcOxP_DB01_F04 (human IgG1) (antibody, V domains shown) VH: EVQLLESGGGLVQPGGSLRLSCAASGFTFSSYYMEWVRQAPGKGLEWVAASRNKYNDYTTEYADSVKGRFTISRDNSKNTLYLQMNSLRAEDTAVYYCARDYYGSSYWYFDVWGQGTLVTVSS VL: DIQMTQSPSSLSASVGDRVTITCTASESLYSSKHKVHYLAWYQQKPGKAPKLLIYGAVNRYIGVPSRFSGSGSGTDFTLTISSLQPEDFATYYCAQFYRYPLTFGGGTKVEIK	0.344 nM
PcOxP_DB03_C03 (human IgG1) (antibody, V domains shown) VH: EVQLLESGGGLVQPGGSLRLSCAASGFTFSDFYMEWVRQAPGKGLEWVAASRNKYNDYTTEYADSVKGRFTISRDNSKNTLYLQMNSLRAEDTAVYYCARDYYGSSYWYFDVWGQGTLVTVSS VL: DIQMTQSPSSLSASVGDRVTITCTASESLYSSKHKVHYLAWYQQKPGKAPKLLIYGASNRYIGVPSRFSGSGSGTDFTLTISSLQPEDFATYYCAQFYSYPLTFGGGTKVEIK	0.339 nM
PcOxP_DB03_C12 (human IgG1) (antibody, V domains shown) VH: EVQLLESGGGLVQPGGSLRLSCAASGFTFSDYYMEWVRQAPGKGLEWVAASRNKANDYTTEYADSVKGRFTISRDNSKNTLYLQMNSLRAEDTAVYYCARDYYGSSYWYFDVWGQGTLVTVSS VL: DIQMTQSPSSLSASVGDRVTITCTASESLYSSKHKVHYLAWYQQKPGKAPKLLIYGASNRYGGVPSRFSGSGSGTDFTLTISSLQPEDFATYYCAQFYSYPLTFGGGTKVEIK	0.436 nM
PcOxP_DB02_B04 (human IgG1) (antibody, V domains shown) VH: EVQLLESGGGLVQPGGSLRLSCAASGFTFSDYYMEWVRQAPGKGLEWVAASRNKWNDYTTEYADSVKGRFTISRDNSKNTLYLQMNSLRAEDTAVYYCARDYYGSSYWYFDVWGQGTLVTVSS VL: DIVMTQSPDSLAVSLGERATINCTASESLYSSKHKVHYLAWYQQKPGQPPKLLIYGASNRYIGVPDRFSGSGSGTDFTLTISSLQAEDVAVYYCAQFYSYPLTFGGGTKVEIK	0.278 nM

Further binders by falling EC50, results first:

EC50	Binder
0.257 nM	PcOxP_DB04_G01 (human IgG1) (antibody, V domains shown) VH: EVQLLESGGGLVQPGGSLRLSCAASGFTFSDYYMEWVRQAPGKGLEWVAASRNKWNDYTTEYADSVKGRFTISRDNSKNTLYLQMNSLRAEDTAVYYCARDYYLSSYWYFDVWGQGTLVTVSS VL: DIVMTQSPDSLAVSLGERATINCKASQSVLSSKNNVNYLAWYQQKPGQPPKLLIYGASNRYIGVPDRFSGSGSGTDFTLTISSLQAEDVAVYYCAQFYQYPLTFGGGTKVEIK
0.251 nM	PcOxP_DB04_E08 (human IgG1) (antibody, V domains shown) VH: EVQLLESGGGLVQPGGSLRLSCAASGFTSSDFYLEWVRQAPGKGLEWVAASRNKWNDYTTEYADSVKGRFTISRDNSKNTLYLQMNSLRAEDTAVYYCARDYYGSSYWYFDVWGQGTLVTVSS VL: DIVMTQSPDSLAVSLGERATINCTASESLYSSKHKVHYLAWYQQKPGQPPKLLIYGVSNRYIGVPDRFSGSGSGTDFTLTISSLQAEDVAVYYCAQFYSYPLTFGGGTKVEIK
0.244 nM	PcOxP_DB01_F11 (human IgG1) (antibody, V domains shown) VH: EVQLLESGGGLVQPGGSLRLSCAASGFTFSSYYMEWVRQAPGKGLEWVAASRNKANDYTTEYADSVKGRFTISRDNSKNTLYLQMNSLRAEDTAVYYCARDYYGSSYWYYDVWGQGTLVTVSS VL: DIVMTQSPDSLAVSLGERATINCTASESLYSSKHKVHYLAWYQQKPGQPPKLLIYGASNRYIGVPDRFSGSGSGTDFTLTISSLQAEDVAVYYCAQFYSYPLTFGGGTKVEIK
0.244 nM	PcOxP_DB01_H08 (human IgG1) (antibody, V domains shown) VH: EVQLLESGGGLVQPGGSLRLSCAASGFTHSDFYMEWVRQAPGKGLEWVAASRNKANDYTTEYADSVKGRFTISRDNSKNTLYLQMNSLRAEDTAVYYCARDYYGSSYWYFDVWGQGTLVTVSS VL: DIQMTQSPSSLSASVGDRVTITCRASESISSSKHKHYLAWYQQKPGKAPKLLIYGASNRYIGVPSRFSGSGSGTDFTLTISSLQPEDFATYYCAQFYVYPLTFGGGTKVEIK
0.244 nM	PcOxP_DB03_G11 (human IgG1) (antibody, V domains shown) VH: EVQLLESGGGLVQPGGSLRLSCAASGFTFSSYYMEWVRQAPGKGLEWVAASRNKANDYTTEYADSVKGRFTISRDNSKNTLYLQMNSLRAEDTAVYYCARDYYGSSYWYFDVWGQGTLVTVSS VL: DIVMTQSPDSLAVSLGERATINCKSSQSVLSSKHKKNYLAWYQQKPGQPPKLLIYGASNRYIGVPDRFSGSGSGTDFTLTISSLQAEDVAVYYCAQFYSYPLTFGGGTKVEIK
0.231 nM	PcOxP_DB02_G04 (human IgG1) (antibody, V domains shown) VH: EVQLLESGGGLVQPGGSLRLSCAASGFTFSDYYMEWVRQAPGKGLEWVAASRWKANDYTTEYADSVKGRFTISRDNSKNTLYLQMNSLRAEDTAVYYCARDYYGSSYWYFDVWGQGTLVTVSS VL: DIVMTQSPDSLAVSLGERATINCKASQSVLYSKNKKHYLAWYQQKPGQPPKLLIYGASNRQIGVPDRFSGSGSGTDFTLTISSLQAEDVAVYYCAQFYVYPLTFGGGTKVEIK
0.229 nM	PcOxP_DB03_H03 (human IgG1) (antibody, V domains shown) VH: EVQLLESGGGLVQPGGSLRLSCAASGFTGSDFYMEWVRQAPGKGLEWVAASRNKWNDYTTEYADSVKGRFTISRDNSKNTLYLQMNSLRAEDTAVYYCARDYYGSSYWYFDVWGQGTLVTVSS VL: DIQMTQSPSSLSASVGDRVTITCTASESLSSSKHKHYLAWYQQKPGKAPKLLIYGASSRYSGVPSRFSGSGSGTDFTLTISSLQPEDFATYYCAQFYSYPLTFGGGTKVEIK
0.219 nM	PcOxP_DB01_B06 (human IgG1) (antibody, V domains shown) VH: EVQLLESGGGLVQPGGSLRLSCAASGFTFSSYYMEWVRQAPGKGLEWVAASRNKYNDYTTEYADSVKGRFTISRDNSKNTLYLQMNSLRAEDTAVYYCARDYYGSSTWYFDVWGQGTLVTVSS VL: DIVMTQSPDSLAVSLGERATINCTASESLYSSKHKVHYLAWYQQKPGQPPKLLIYGASNRYIGVPDRFSGSGSGTDFTLTISSLQAEDVAVYYCAQFYSYPLTFGGGTKVEIK
0.216 nM	PcOxP_DB03_G03 (human IgG1) (antibody, V domains shown) VH: EVQLLESGGGLVQPGGSLRLSCAASGFTSSDFYMEWVRQAPGKGLEWVAASRNKANDYTTEYADSVKGRFTISRDNSKNTLYLQMNSLRAEDTAVYYCARDYYGSSYWYFDVWGQGTLVTVSS VL: DIQMTQSPSSLSASVGDRVTITCTASQSISSSKHKVHYLAWYQQKPGKAPKLLIYGASNHYIGVPSRFSGSGSGTDFTLTISSLQPEDFATYYCAQFYSYPLTFGGGTKVEIK
0.216 nM	PcOxP_DB01_F06 (human IgG1) (antibody, V domains shown) VH: EVQLLESGGGLVQPGGSLRLSCAASGDTFSDFYMEWVRQAPGKGLEWVAASRNKANDYTTEYADSVKGRFTISRDNSKNTLYLQMNSLRAEDTAVYYCARDYYGSSYWYFDVWGQGTLVTVSS VL: DIVMTQSPDSLAVSLGERATINCKSSQSLYYSSNKKNYLAWYQQKPGQPPKLLIYGASNRYGGVPDRFSGSGSGTDFTLTISSLQAEDVAVYYCAQFYRYPLTFGGGTKVEIK
